Measured values taken from publication PMC5117717.

Columns and labels:
[1] = target: HumRadA33 (Pyrococcus furiosus) (UniProt O74036); test: ITC; 25 °C; peptide titrated into protein; 50 mM Tris–HCl (pH 8.5), 250 mM NaCl, 5 mM MgCl2; single-site model
[2] = target: HumRadA2 (Pyrococcus furiosus) (UniProt O74036); test: ITC; 25 °C; peptide titrated into protein; 50 mM Tris–HCl (pH 7.5), 150 mM NaCl, 5 mM MgCl2; single-site model
[3] = target: HumRadA1 (first humanised RadA protein) (Pyrococcus furiosus) (UniProt O74036); test: ITC; 25 °C; peptide titrated into protein; single-site model; the buffer for HumRadA1 is not listed
[4] = target: unlabelled BRC4 repeat (E. coli-produced); test: DSF (thermal shift); details: read off a plot
[5] = target: RadA oligomerisation peptide; test: DSF (thermal shift); details: read off a plot
ATP-Mg2+ = test: DSF (thermal shift); details: read off a plot
[6] = target: ChimRAD51 (archeal human chimeric RadA/RAD51/RadA protein) (Pyrococcus furiosus | human) (UniProt O74036); test: ITC; 25 °C; ChimRAD51 dialysed against 20 mM K/phosphate (pH 8.0) and 192 mM KCl
[7] = target: Alexa Fluor 488-labelled BRC4 peptide (human); test: fluorescence polarisation; direct binding; 10 nM Alexa Fluor 488-labelled BRC4 peptide constant, protein titrated; 25 °C, 100 mM Tris (pH 7.5), 200 mM KCl, 1.25% glycerol; single-site fit

Substance	Kd [1] [nM]	Kd [3] [nM]	other: ΔT (DSF thermal shift on ligand addition) [4] [°C]	further results
PfRadA monomeric C-terminal ATPase domain (from residue 108, L2 loop deleted) I169M; Y201A; V202Y; L213Q; V215L; Q216Y; E219S; D220A; K221M; D267M; L274E; Y275F			0.15	other: ΔT (DSF thermal shift on ligand addition) [5]: 2.7 °C; other: ΔT (DSF thermal shift on ligand addition) (ATP-Mg2+): 6.1 °C
unlabelled BRC4 repeat (E. coli-produced) (peptide)	33			stoichiometry N [6]: 1
ChimRAD51 (archeal human chimeric RadA/RAD51/RadA protein) (from UniProt O74036 108-165; Q06609 156-261; O74036 278-349)				Kd [7]: 4 nM
PfRadA monomeric C-terminal ATPase domain (from residue 108, L2 loop deleted) I169M; Y201A; V202Y; E219S; D220A; K221M			0.3	

Continued, in another order:

Kd [1] [nM]	Kd [3] [nM]	other: ΔT (DSF thermal shift on ligand addition) [4] [°C]	Substance	further results
14000	1800		RadA oligomerisation peptide	Kd [2]: 3400 nM
800	24000		RAD51 oligomerisation peptide	
